Measured values published in the supplement of paper PMC9170038.

Test system: MS2 coat protein
Test: apparent KD of MS2 coat protein; designed switch direction (-1 OFF switch, 1 ON switch): -1; higher = weaker reporter binding
In short: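 Normalised cluster fluorescence was curve-fitted, and each design's median over clusters is its apparent KD. Before this, SNAP-549-labelled MS2 coat protein was titrated from 0.7 or 1.5 nM, doubling to 3 µM, over RNA switches transcribed on Illumina chips by stalled E. coli RNA polymerase. Titrations had no input, 200 uM small-molecule ligand, or an oligonucleotide input, and steps lasted 0.8–1.5 h (lowest) to 10–20 min (highest).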

[1] = Eterna round: R95, input ligand: FMN 200 uM
[2] = Eterna round: R95, input ligand: microRNA oligo, concentration not stated
[3] = Eterna round: R95, input ligand: none
[4] = input ligand: microRNA oligo, concentration not stated

Row | Sequence | apparent KD of MS2 coat protein (input ligand: FMN 200 uM) [nM] | apparent KD of MS2 coat protein (input ligand: none) [nM] | apparent KD of MS2 coat protein [1] [nM] | apparent KD of MS2 coat protein [2] [nM] | apparent KD of MS2 coat protein [3] [nM] | apparent KD of MS2 coat protein [4] [nM]
1 | UAUUAGCAAGCGAGAUCCGACAUGAGGAUCACCCAUGUGCUCGUCUUAUAAGGGAGGGAGGGAAAACCCUCCCUCCC [Elimod 9 - Jieux - Sensor, turn-off variant 1] (Eterna round: R97, puzzle: Sensor, turn-off variant 1) | 19.5 | 21.2 |  |  |  | 
2 | AACAAGCUUUUAAGAUGAAAGAUAGUAGGUAGCUCCUUUACAUGAGGAUCACCCAUGUUUGUGUAGCUCGAUCUUAU [JR_SV3TOV2_Sub076] (puzzle: Sensor v3, turn-off variant 2) |  |  | 12.3 | 37.4 | 11.5 | 
3 | CUGGUGUGAGGAUAUCAGGGCGCGCCCAAGGGCACGCCAAAUGAGAAGGCACAUGAGGAUCACCCAUGUGGGAC [Erzala] (puzzle: Exclusion 4) |  |  | 45.6 | 31.4 | 35.3 | 
4 | AAACCGCAUGUCAGGAUAUCCAGUCCGACUAGCUAGGAGAAGGGACAUGAGGAUCACCCAUGUUUCAUGGCUCG [Anveonat] (puzzle: Brourd's mod of Exclusion 4) |  |  | 37.6 | 19.6 | 19 | 
5 | UCCUCACAUGAGGAUCACCCAUGUGAGGAUAUCAUGCUUCGUAGUAAACUACGAAGUGUGAGAAGGCGCAUGGC [Omei Ex1 D16] (Eterna round: R97, puzzle: Exclusion 1) | 20.4 | 16.2 |  |  |  | 
6 | AAAAAGGUAGGAUAUACGAAAAAAAAGGGUAGAAAAAAAACACAUGAGGAUCACCCAUGUAGAAGGACCAAAAC [salish99_ex2_r3_046] (puzzle: Exclusion 2) |  |  | 66.7 | 33.4 | 30.2 | 
7 | GAGUUAGCGUGUGGCACAUACAUGAGGAUCACCCAUGUUAGCUUAUAUAUUGCUCGUCUUAUAACAACACUUAACUG [Mod JX-Electric-eye5] (Eterna round: R97, puzzle: Sensor, turn-off variant 1) | 22.5 | 23.9 |  |  |  | 
8 | GAUUGACAUGAGGAUCACCCAUGUGAGGAUAUCGGCUGGACCGUGUUGGCUUGGGUUUCGAGAAGGCGCAUAGG [Exclusion 1 V46] (puzzle: Exclusion 1) |  |  | 70.5 | 88.2 | 74.6 | 
9 | AAAUCGGCAGGAUAUACAUGAGGAUCACCCAUGUAAAUUUUUCGUUUAACUUGAAUGUGUAGAAGGGCCAUUAA [Ex3 #64] (Eterna round: R97, puzzle: Exclusion 3) | 24.8 | 24.6 |  |  |  | 
10 | UAACAAAUGGUCAGGAUAUCACUCCCGGCCCAGAGUGAGAAGGGACAUGAGGAUCACCCAUGUAUGAUUCUCAC [jl-ex4-4.54 ViennaUCT mod] (Eterna round: R97, puzzle: Brourd's mod of Exclusion 4) | 19.7 | 15.1 |  |  |  | 
11 | UAUUAAACAUAGGAUAUCGAAUAUAUCAUUUAACGAGAAGGAUGAACAUGAGGAUCACCCAUGUGGUAUCAUGG [Mat - Exclusion 6 - JL Mod - D13] (puzzle: Exclusion 6) |  |  | 196 | 269 | 410 | 
12 | CUCUUGUGAGGAUAUCAGGUGUGCUAGCGUACUGGUACAUCUGAGAAGGCACAUGAGGAUCACCCAUGUUUCUU [JL-ex4-3.21 Brourd mod] (puzzle: Exclusion 4) |  |  |  | 78.1 |  | 
13 | ACAAGCUCUGUGGGUGGGUACAUGAGGAUCACCCAUGUUUUGCUCGUCUUGUGGGCCCGGGCCCGCGGCCCGGGCCC [-41.4, -69.7, A 12%] (Eterna round: R97, puzzle: Sensor, turn-off variant 1) | 604 | 1180 |  |  |  | 
14 | UUUAGUUCAGGAUAUGUAGAUUUUAACAUGAGGAUCACCCAUGUAGAUCCUGAAUUAACUACAGAAGGGAACAUUA [Exclusion 5: 2:d] (puzzle: Exclusion 5) |  |  |  | 19.4 |  | 
15 | GCAGGUCGAGGAUAUACAUGAGGAUCACCCAUGUUGAUCAAGCGACUUCGGUCGCAAUGUAGAAGGCGACCUGC [E3/7-A6] (Eterna round: R97, puzzle: Exclusion 3) | 151 | 1210 |  |  |  | 
16 | CACUUACAUGAGGAUCACCCAUGUGAGGAUAUCGUGACCAGACGAGAAGUCUAUGUCACGAGAAGGCACUUGGG [Exclusion 1 (Mod 2 solution 97 by Eternabot)] (Eterna round: R97, puzzle: Exclusion 1) | 114 | 314 |  |  |  | 
17 | AUAAUGUGAGGAUAUCAGUAGUAUUGCCUCGGCAAUACUACUGAGAAGGCACAUGAGGAUCACCCAUGUGAUCA [E4/2-B2] (Eterna round: R97, puzzle: Exclusion 4) | 29.3 | 772 |  |  |  | 

Row | Sequence | apparent KD of MS2 coat protein (input ligand: FMN 200 uM) [nM] | apparent KD of MS2 coat protein (input ligand: none) [nM] | apparent KD of MS2 coat protein [1] [nM] | apparent KD of MS2 coat protein [2] [nM] | apparent KD of MS2 coat protein [3] [nM] | apparent KD of MS2 coat protein [4] [nM]
18 | GCAGCAUAGUUUACUAACUGUUACAUGAGGAUCACCCAUGUCUAGGAUAUGGUCUGGAUUACAGGCCAGAAGGAGGCAAGCUGC [Eli exng3 - 035] (Eterna round: R96, puzzle: Exclusion NG 3) | 11.8 | 19.8 |  |  |  | 16.8
19 | UUUAACAAGCCAGAUCCUCACAUGAGGAUCACCCAUGUGCUCGUCUGAUUUUGUACUAUCAUGUGAGUGAUAGUGUU [Level Boss var2-06] (puzzle: Sensor v3, turn-off variant 1) |  |  | 67.3 | 24.7 | 115 | 
20 | GUCAGCUCGUGAGGAUAUGAACAUGAGGAUCACCCAUGUAAGAUCAAGCUGCUUCGGCAGCAAGUUCAGAAGGCACGAGCUGAU [ENG2/10-A2] (Eterna round: R96, puzzle: Exclusion NG 2) | 251 | 172 |  |  |  | 134
21 | UGAGGACAUGAGGAUCACCCAUGUAAGGAUAUGCGGAGAGAUUGGAGAGGUCGAGGAGGCAGAAGGUACAGGAC [JR_Exclu1_Sub049] (puzzle: Exclusion 1) |  |  |  | 68 |  | 
22 | GAUUAUGCGAGCUUUAGGGACAUGAGGAUCACCCAUGUUCGUCUUAUUGGUCUAAAUGCACUGACAUACCUAAAUCU [JMF 74] (puzzle: Sensor v3, turn-off variant 1) |  |  | 14.9 | 19.8 | 16.7 | 
23 | GCAGCAUAGAUGAAAAUCUGAUACAUGAGGAUCACCCAUGUUCAGGAUAUGGUCUGGAUUACAGGCCAGAAGGGAACAAGCUGC [Eli exng3 - 011] (Eterna round: R96, puzzle: Exclusion NG 3) | 14 | 12 |  |  |  | 10.3
24 | GAUUAUGCGAGCUUUAGGGACAUGAGGAUCACCCAUGUUCGUCUUAUUAGUCUGAGUACACUGACAUACCUAAAUCU [JMF 62] (puzzle: Sensor v3, turn-off variant 1) |  |  | 14.2 | 14.8 | 13.3 | 
25 | CUUUUGUGAGGAUAUCAGUAGUAAAAAAAUAAAAUUUCUACUGAGAAGGCACAUGAGGAUCACCCAUGUUCCUC [salish99_ex4_r3_026] (puzzle: Exclusion 4) |  |  |  | 34.5 |  | 
26 | GCAGCAUAGUUUACUAACUGUUACAUGAGGAUCACCCAUGUUUAGGAUAUGGUCUGGAUUACAGGCCAGAAGGAAACAAGCUGC [Eli exng3 - 033] (Eterna round: R96, puzzle: Exclusion NG 3) | 12.8 | 12.4 |  |  |  | 9.51
27 | AAAAUUGUAGGAUAUUAGGCAGACAACAUGAGGAUCACCCAUGUCCGUGAUCUUAGGCACUGAGAAGGAUAAGCCU [Eternabot (Original) Solution 23] (Eterna round: R97, puzzle: Exclusion 5) | 147 | 159 |  |  |  | 
28 | UGCUACAUGAGGAUCACCCAUGUAAUGUGGGAUUCGUUAGGACAGGAUAUGAUUGUAUAGUUUUUUCAGAAGGGUCAUUACUUU [JR_ExcNG3_Sub010] (Eterna round: R96, puzzle: Exclusion NG 3) |  |  |  |  |  | 62.9
29 | GUGCUAUAGGAAGGAUAUACUUCAUUAGACUAACAUGAGGAUCACCCAUGUAACCUUAUGUAUGUGUAGAAGGUCCAUAGCUUA (Eterna round: R96, puzzle: Exclusion NG 2) | 15.5 | 20.1 |  |  |  | 13.3
30 | UCAUGUAUGUAGGAUAUCGAUGUCCUCGGACAUCGAGAAGGACGUACAUGAGGAUCACCCAUGUAACUUGCAUG [Exclusion 6 - B - 11:c] (puzzle: Exclusion 6) |  |  | 23 | 14 | 23.4 | 
31 | CUGUGCACGCUGCGGUCCUACAUGAGGAUCACCCAUGUGGUCUGGUGGCGUGGGUCACCGGACUUGGCUCGUCUUGA [salish99_S_TOV1_R5_065] (Eterna round: R97, puzzle: Sensor, turn-off variant 1) | 44.8 | 49.3 |  |  |  | 
32 | UACAUGAGGAUCACCCAUGUUUUGUCGUGUAUGGUAUUUAUCUAGGAUAUCAUGUUAUUUAGUUAUGAGAAGGAGAAUAUUAAU [JMF's solution 81] (Eterna round: R96, puzzle: Exclusion NG 3) | 45.6 | 38.5 |  |  |  | 31.3
33 | UAGGUACGAGGAUAUACAUAGAUACAGACACAUGUAGAUGUACAUGAGGAUCACCCAUGUAGAAGGCGUAUAUA [Mat - Same state - Mayanna Mod - D110] (Eterna round: R96, puzzle: Exclusion 2) |  |  |  |  |  | 60.7
34 | UUAUUAUAUGUAGGAUAUGCAUAUUGUUGUUAUGCAGAAGGACAUGAGGAUCACCCAUGUAUAUUAUUGUUAUAUAUUGUAUAU [Title] (Eterna round: R96, puzzle: Exclusion NG 1) |  |  |  |  |  | 18.2
